Experimental data published in US20210032299A1 (Eli Lilly, published 2021).
Starred links: 1 amine or outer side, 2 acyl side, 3 side chain; linkers in the order of their positions; H or OH if unused. Non-standard residues stand in square brackets, D forms with d. Groups on a side chain read outwards from the residue. No end group written: not given here. *: point of attachment. C20 diacid = O=C(O)CCCCCCCCCCCCCCCCCCC(=O)*; γGlu = O=C(O)[C@H](CCC(=O)[*:2])N[*:1]; AEEA = NCCOCCOCC(=O)O

How the values were obtained:
Experiment in all cases: cell-based or functional assay
[1] = biological target: human glucagon receptor (human, UniProt P47871 26-477)
Chain of human glucagon receptor (P47871 26-477): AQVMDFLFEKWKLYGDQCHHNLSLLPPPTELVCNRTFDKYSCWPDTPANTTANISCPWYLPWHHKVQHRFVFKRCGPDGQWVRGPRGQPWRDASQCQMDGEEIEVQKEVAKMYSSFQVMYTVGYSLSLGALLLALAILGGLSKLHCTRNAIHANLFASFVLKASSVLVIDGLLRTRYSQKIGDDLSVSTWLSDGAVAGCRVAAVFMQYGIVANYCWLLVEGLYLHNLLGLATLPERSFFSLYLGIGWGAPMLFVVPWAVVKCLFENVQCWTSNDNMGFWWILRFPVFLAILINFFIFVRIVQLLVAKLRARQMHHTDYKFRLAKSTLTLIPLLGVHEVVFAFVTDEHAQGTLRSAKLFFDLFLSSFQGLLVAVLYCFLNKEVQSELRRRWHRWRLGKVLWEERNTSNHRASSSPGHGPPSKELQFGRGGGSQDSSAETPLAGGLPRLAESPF

[2] = biological target: T1, human glucose-dependent insulinotropic peptide receptor (human, UniProt P48546 22-466)
T1 sequence (looked up): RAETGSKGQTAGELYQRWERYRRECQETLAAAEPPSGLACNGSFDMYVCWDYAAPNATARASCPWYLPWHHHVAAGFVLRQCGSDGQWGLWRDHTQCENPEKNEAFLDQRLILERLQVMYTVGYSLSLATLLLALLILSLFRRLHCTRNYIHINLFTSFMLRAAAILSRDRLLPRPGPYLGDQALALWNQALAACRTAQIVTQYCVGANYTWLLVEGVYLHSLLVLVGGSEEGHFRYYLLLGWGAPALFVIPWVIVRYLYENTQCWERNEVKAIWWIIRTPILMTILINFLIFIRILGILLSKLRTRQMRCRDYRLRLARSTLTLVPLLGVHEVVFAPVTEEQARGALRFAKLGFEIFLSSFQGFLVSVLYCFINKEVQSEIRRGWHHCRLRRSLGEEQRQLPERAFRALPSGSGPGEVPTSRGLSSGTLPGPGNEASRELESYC

[3] = biological target: human GLP-1 receptor (human, UniProt P43220 24-463)

Row | Binder | hGcgR cAMP Rel EC50 [1] | hGIPR cAMP Rel EC50 [2] | hGLP1R cAMP Rel EC50 [3]
1 | Y[dA]EGTFISDYSILLDKK([AEEA-AEEA-γGlu-C20 diacid])AQQDFVNWLLAGGPSSGAPPPS-NH2 (N-terminus assumed; SMILES CC[C@H](C)[C@H](NC(=O)[C@H](CO)NC(=O)[C@H](Cc1ccc(O)cc1)NC(=O)[C@H](CC(=O)O)NC(=O)[C@H](CO)NC(=O)[C@@H](NC(=O)[C@H](Cc1ccccc1)NC(=O)[C@@H](NC(=O)CNC(=O)[C@H](CCC(=O)O)NC(=O)[C@@H](C)NC(=O)[C@@H](N)Cc1ccc(O)cc1)[C@@H](C)O)[C@@H](C)CC)C(=O)N[C@@H](CC(C)C)C(=O)N[C@@H](CC(C)C)C(=O)N[C@@H](CC(=O)O)C(=O)N[C@@H](CCCCN)C(=O)N[C@@H](CCCCNC(=O)COCCOCCNC(=O)COCCOCCNC(=O)CC[C@H](NC(=O)CCCCCCCCCCCCCCCCCCC(=O)O)C(=O)O)C(=O)N[C@@H](C)C(=O)N[C@@H](CCC(N)=O)C(=O)N[C@@H](CCC(N)=O)C(=O)N[C@@H](CC(=O)O)C(=O)N[C@@H](Cc1ccccc1)C(=O)N[C@H](C(=O)N[C@@H](CC(N)=O)C(=O)N[C@@H](Cc1c[nH]c2ccccc12)C(=O)N[C@@H](CC(C)C)C(=O)N[C@@H](CC(C)C)C(=O)N[C@@H](C)C(=O)NCC(=O)NCC(=O)N1CCC[C@H]1C(=O)N[C@@H](CO)C(=O)N[C@@H](CO)C(=O)NCC(=O)N[C@@H](C)C(=O)N1CCC[C@H]1C(=O)N1CCC[C@H]1C(=O)N1CCC[C@H]1C(=O)N[C@@H](CO)C(N)=O)C(C)C) [Example 12] | > 5000 nM | 0.0911 nM | > 100 nM
2 | Y[dA]EGTFISDYSILLDKK([AEEA-AEEA-γGlu-C20 diacid])HQQEFVNWLLAQGPSSGAPPPS-NH2 (N-terminus assumed; SMILES CC[C@H](C)[C@H](NC(=O)[C@H](CO)NC(=O)[C@H](Cc1ccc(O)cc1)NC(=O)[C@H](CC(=O)O)NC(=O)[C@H](CO)NC(=O)[C@@H](NC(=O)[C@H](Cc1ccccc1)NC(=O)[C@@H](NC(=O)CNC(=O)[C@H](CCC(=O)O)NC(=O)[C@@H](C)NC(=O)[C@@H](N)Cc1ccc(O)cc1)[C@@H](C)O)[C@@H](C)CC)C(=O)N[C@@H](CC(C)C)C(=O)N[C@@H](CC(C)C)C(=O)N[C@@H](CC(=O)O)C(=O)N[C@@H](CCCCN)C(=O)N[C@@H](CCCCNC(=O)COCCOCCNC(=O)COCCOCCNC(=O)CC[C@H](NC(=O)CCCCCCCCCCCCCCCCCCC(=O)O)C(=O)O)C(=O)N[C@@H](Cc1c[nH]cn1)C(=O)N[C@@H](CCC(N)=O)C(=O)N[C@@H](CCC(N)=O)C(=O)N[C@@H](CCC(=O)O)C(=O)N[C@@H](Cc1ccccc1)C(=O)N[C@H](C(=O)N[C@@H](CC(N)=O)C(=O)N[C@@H](Cc1c[nH]c2ccccc12)C(=O)N[C@@H](CC(C)C)C(=O)N[C@@H](CC(C)C)C(=O)N[C@@H](C)C(=O)N[C@@H](CCC(N)=O)C(=O)NCC(=O)N1CCC[C@H]1C(=O)N[C@@H](CO)C(=O)N[C@@H](CO)C(=O)NCC(=O)N[C@@H](C)C(=O)N1CCC[C@H]1C(=O)N1CCC[C@H]1C(=O)N1CCC[C@H]1C(=O)N[C@@H](CO)C(N)=O)C(C)C) [Example 13] | > 5000 nM | 0.129 nM | > 100 nM
